According to patent US20230227548A1 (published 2023):
Where a chain is given by its changes, count along the chain named. Numbers in names are those of the source.

What was measured:
human GPRC5D [1] = biological target: T1, human GPRC5D (human, UniProt Q9NZD1 1-345); experiment: cell-based or functional assay
human GPRC5D [2] = biological target: T1, human GPRC5D; experiment: cell-based or functional assay; remark: listed apart in the source
human GPRC5D [3] = biological target: T1, human GPRC5D; experiment: cell-based or functional assay; remark: listed apart in the source
human GPRC5D [4] = biological target: T1, human GPRC5D; experiment: FACS, MM patient MM303BM bone marrow MNCs (plasma cells)
human GPRC5D [5] = biological target: T1, human GPRC5D; experiment: FACS, MM patient MM305BM bone marrow MNCs (plasma cells)
cyno GPRC5D = biological target: T2, cyno GPRC5D (cyno, UniProt Q9NZD1 1-343 (human entry)); experiment: cell-based or functional assay
T2 chain: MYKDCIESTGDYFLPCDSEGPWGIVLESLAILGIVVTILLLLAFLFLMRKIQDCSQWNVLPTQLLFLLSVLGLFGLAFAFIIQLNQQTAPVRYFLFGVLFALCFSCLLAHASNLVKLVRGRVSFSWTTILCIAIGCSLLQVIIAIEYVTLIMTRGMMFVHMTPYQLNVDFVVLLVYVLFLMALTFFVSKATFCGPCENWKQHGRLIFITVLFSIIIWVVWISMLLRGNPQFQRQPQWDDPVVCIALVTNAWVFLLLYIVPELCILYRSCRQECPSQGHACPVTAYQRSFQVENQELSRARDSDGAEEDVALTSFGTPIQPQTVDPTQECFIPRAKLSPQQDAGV

human GPRC5D [6] = biological target: T1, human GPRC5D; experiment: FACS, human GPRC5D cells

T1 sequence (Q9NZD1 whole entry): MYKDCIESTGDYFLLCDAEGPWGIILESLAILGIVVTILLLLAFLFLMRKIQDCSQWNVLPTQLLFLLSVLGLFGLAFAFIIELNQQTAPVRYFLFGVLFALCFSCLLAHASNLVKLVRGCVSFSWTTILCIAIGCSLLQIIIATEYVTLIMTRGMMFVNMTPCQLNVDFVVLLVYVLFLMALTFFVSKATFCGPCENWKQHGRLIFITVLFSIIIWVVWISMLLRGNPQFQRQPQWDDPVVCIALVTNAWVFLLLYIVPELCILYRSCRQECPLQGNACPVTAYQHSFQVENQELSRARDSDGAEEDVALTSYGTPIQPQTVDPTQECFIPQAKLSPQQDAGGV

B1: GCDB32 (bispecific antibody, IgG4, V domains shown)
VH 1: EVQLVESGGGLVQPGGSLRLSCAASGFTFNTYAMNWVRQAPGKGLEWVARIRSKYNNYATYYAASVKGRFTISRDDSKNSLYLQMNSLKTEDTAVYYCARHGNFGNSYVSWFAYWGQGTLVTVSS
VL 1: QTVVTQEPSLTVSPGGTVTLTCRSSTGAVTTSNYANWVQQKPGQAPRGLIGGTNKRAPGTPARFSGSLLGGKAALTLSGVQPEDEAEYYCALWYSNLWVFGGGTKLTVL
VH 2: not shown
VL 2: not shown
notes: IgG4-PAA by Fab arm exchange; first VH/VL = CD3B219 arm (IgG4 S228P, L234A, L235A, F405L, R409K); also called GC5B81 x CD3B219
In the case of B1, the “T-cell mediated cytotoxicity EC50, H929 (n = 5)” value (human GPRC5D [1]) is reported as 0.39 nM, the “T-cell mediated cytotoxicity EC50, MM1R (n = 3)” value (human GPRC5D [1]) is reported as 0.12 nM and the “T-cell mediated cytotoxicity EC50, H929 cells” value (human GPRC5D [2]) is reported as 0.45 nM. For the same binder, the “T-cell mediated cytotoxicity EC50, LP-1” value (human GPRC5D [2]) was 1.02 nM, the “T-cell mediated cytotoxicity EC50, MM1R” value (human GPRC5D [2]) was 0.04 nM and the “T-cell mediated cytotoxicity EC50, OPM2” value (human GPRC5D [2]) was 0.98 nM. The “T-cell redirection cytotoxicity EC50, human GPRC5D HEK cells” value (human GPRC5D [3]) was 0.04 nM, the EC50 (human GPRC5D [4]) was 16.1 nM and the EC50 (human GPRC5D [5]) was 70.4 nM.

B2: GCDB35 (bispecific antibody, V domains shown)
VH 1: B1 VH 1
VL 1: B1 VL 1
VH 2: EVQLVQSGAEVKKPGESLKISCKGSGYSFTSYWIGWVRQMPGKGLEWMGIIYPGDSDTRYSPSFQGQVTISADKSISTAYLQWSSLKASDTAMYYCARVYSFGGRHKALFDYWGQGTLVTVSS
VL 2: EIVLTQSPATLSLSPGERATLSCRASQSVSSYLAWYQQKPGQAPRLLIYDASNRATGIPARFSGSGSGTDFTLTISSLEPEDFAVYYCQQRSNWPLTFGQGTKVEIK
For B2, the “T-cell mediated cytotoxicity EC50, H929 (n = 5)” value (human GPRC5D [1]) was 1.39 nM and the “T-cell mediated cytotoxicity EC50, MM1R (n = 3)” value (human GPRC5D [1]) was 0.74 nM.

B3: GCDB72 (bispecific antibody, IgG4, V domains shown)
VH 1: B1 VH 1
VL 1: B1 VL 1
VH 2: QVQLVQSGAEVKKPGASVKVSCKASGYSFTGYTMNWVRQAPGQGLEWMGLINPYNSDTNYAQKLQGRVTMTTDTSTSTAYMELRSLRSDDTAVYYCARVALRVALDYWGQGTLVTVSS
VL 2: DIQMTQSPSSLSASVGDRVTITCKASQNVATHVGWYQQKPGKAPKRLIYSASYRYSGVPSRFSGSGSGTEFTLTISNLQPEDFATYYCQQYNRYPYTFGQGTKLEIK
With B3 the “T-cell redirection cytotoxicity EC50, cyno GPRC5D HEK cells” value (cyno GPRC5D) was 3.41 nM.

B4: GCDB44 (bispecific antibody, V domains shown)
VH 1: B1 VH 1
VL 1: B1 VL 1
VH 2: not shown
VL 2: B2 VL 2
With B4 the “T-cell mediated cytotoxicity EC50, H929 (n = 5)” value (human GPRC5D [1]) was 10.3 nM and the “T-cell mediated cytotoxicity EC50, MM1R (n = 3)” value (human GPRC5D [1]) was 4.41 nM.

B5: GCDB43 (bispecific antibody, V domains shown)
VH 1: B1 VH 1
VL 1: B1 VL 1
VH 2: not shown
VL 2: not shown
B5 was tested, and the “T-cell mediated cytotoxicity EC50, H929 (n = 5)” value (human GPRC5D [1]) was 0.36 nM and the “T-cell mediated cytotoxicity EC50, MM1R (n = 3)” value (human GPRC5D [1]) was 0.21 nM.

B6: GCDB40 (bispecific antibody, V domains shown)
VH 1: B1 VH 1
VL 1: B1 VL 1
VH 2: EVQLLESGGGLVQPGGSLRLSCAASGFTFSDYGMHWVRQAPGKGLEWVSAIKYSGGSTYYADSVKGRFTISRDNSKNTLYLQMNSLRAEDTAVYYCAKRAESGPGLDYWGQGTLVTVSS
VL 2: not shown
B6 was tested, and the “T-cell mediated cytotoxicity EC50, H929 (n = 5)” value (human GPRC5D [1]) was 1.2 nM and the “T-cell mediated cytotoxicity EC50, MM1R (n = 3)” value (human GPRC5D [1]) was 0.52 nM.

B7: GCDB41 (bispecific antibody, V domains shown)
VH 1: B1 VH 1
VL 1: B1 VL 1
VH 2: QVQLVQSGAEVKKPGSSVKVSCKASGGTFSSYGISWVRQAPGQGLEWMGGIIPIFGNINYAQKFQGRVTITADESTSTAYMELSSLRSEDTAVYYCARVSRRFKRFAYYFDYWGQGTLVTVSS
VL 2: not shown
With B7 the “T-cell mediated cytotoxicity EC50, MM1R (n = 3)” value (human GPRC5D [1]) was 2.58 nM.

B8: GCDB61 (bispecific antibody, IgG4, V domains shown)
VH 1: B1 VH 1
VL 1: B1 VL 1
VH 2: B2 VH 2 with W33F, D55K
VL 2: B2 VL 2
notes: IgG4-PAA; first VH/VL = CD3B219 arm (adds F405L, R409K), second = GC5B483 arm; also called GC5B483 x CD3B219
In the case of B8, the “T-cell mediated cytotoxicity EC50, H929 cells” value (human GPRC5D [2]) is reported as 0.39 nM, the “T-cell mediated cytotoxicity EC50, LP-1” value (human GPRC5D [2]) is reported as 1.67 nM and the “T-cell mediated cytotoxicity EC50, MM1R” value (human GPRC5D [2]) is reported as 0.06 nM. For the same binder, the “T-cell mediated cytotoxicity EC50, OPM2” value (human GPRC5D [2]) was 1.46 nM, the “T-cell redirection cytotoxicity EC50, cyno GPRC5D HEK cells” value (cyno GPRC5D) was 1.22 nM and the “T-cell redirection cytotoxicity EC50, human GPRC5D HEK cells” value (human GPRC5D [3]) was 0.03 nM. For the same binder, the EC50 (human GPRC5D [4]) was 5.53 nM and the EC50 (human GPRC5D [5]) was 6.93 nM.

B9: GCDB53 (bispecific antibody, IgG4, V domains shown)
VH 1: B1 VH 1
VL 1: B1 VL 1
VH 2: not shown
VL 2: not shown
notes: IgG4-PAA; first VH/VL = CD3B219 arm (adds F405L, R409K), second = GC5B465 arm; also called GC5B465 x CD3B219
B9 was tested, and the “T-cell mediated cytotoxicity EC50, H929 cells” value (human GPRC5D [2]) was 0.69 nM, the “T-cell mediated cytotoxicity EC50, LP-1” value (human GPRC5D [2]) was 1.58 nM and the “T-cell mediated cytotoxicity EC50, MM1R” value (human GPRC5D [2]) was 0.28 nM. The “T-cell mediated cytotoxicity EC50, OPM2” value (human GPRC5D [2]) was 2.83 nM, the “T-cell redirection cytotoxicity EC50, cyno GPRC5D HEK cells” value (cyno GPRC5D) was 0.36 nM and the “T-cell redirection cytotoxicity EC50, human GPRC5D HEK cells” value (human GPRC5D [3]) was 0.08 nM. For the same binder, the EC50 (human GPRC5D [4]) was 3.98 nM and the EC50 (human GPRC5D [5]) was 10.2 nM.

B10: GC5B493 (antibody, V domains shown)
VH: B2 VH 2 with W33F, D55Y
VL: B2 VL 2
notes: GC5B164 PTM variant, Hc GC5H256
B10: binds (human GPRC5D [6]).

B11: GC5B503 (antibody, V domains shown)
VH: B2 VH 2 with D55K
VL: B2 VL 2
notes: GC5B164 PTM variant, Hc GC5H246
B11: binds (human GPRC5D [6]).

B12: GC5B497 (antibody, V domains shown)
VH: B2 VH 2 with W33V
VL: B2 VL 2
notes: GC5B164 PTM variant, Hc GC5H252
B12: binds (human GPRC5D [6]).

B13: GC5B504 (antibody, V domains shown)
VH: B2 VH 2 with D55E
VL: B2 VL 2
notes: GC5B164 PTM variant, Hc GC5H245
B13: binds (human GPRC5D [6]).

B14: GC5B505 (antibody, V domains shown)
VH: B2 VH 2 with D55Y
VL: B2 VL 2
notes: GC5B164 PTM variant, Hc GC5H244
B14: binds (human GPRC5D [6]).

B15: GC5B496 (antibody, V domains shown)
VH: B2 VH 2 with W33Y
VL: B2 VL 2
notes: GC5B164 PTM variant, Hc GC5H253
B15: binds (human GPRC5D [6]).

B16: GC5B498 (antibody, V domains shown)
VH: B2 VH 2 with W33F
VL: B2 VL 2
notes: GC5B164 PTM variant, Hc GC5H251
B16: binds (human GPRC5D [6]).

B17: GC5B494 (antibody, V domains shown)
VH: B2 VH 2 with W33G, D55Y
VL: B2 VL 2
notes: GC5B164 PTM variant, Hc GC5H255
B17: binds (human GPRC5D [6]).

B18: GC5B495 (antibody, V domains shown)
VH: B2 VH 2 with W33A, D55Y
VL: B2 VL 2
notes: GC5B164 PTM variant, Hc GC5H254
B18: binds (human GPRC5D [6]).

B19: GC5B502 (antibody, V domains shown)
VH: B2 VH 2 with D55S
VL: B2 VL 2
notes: GC5B164 PTM variant, Hc GC5H247
B19: binds (human GPRC5D [6]).

B20: GC5B501 (antibody, V domains shown)
VH: B2 VH 2 with D55A
VL: B2 VL 2
notes: GC5B164 PTM variant, Hc GC5H248
B20: binds (human GPRC5D [6]).
